In doi:10.1101/2024.01.07.574580:

Key:
[1] = target: YY1 cellular transcription factor (UniProt P25490); assay: co-immunoprecipitation (YY1 IP, FLAG-EBNA-LP immunoblot, band signal quantified); settings: 50% IP lanes; trans-complemented LPKO LCLs; parent: 1
[2] = target: YY1 cellular transcription factor (UniProt P25490); assay: co-immunoprecipitation (FLAG-EBNA-LP IP, YY1 immunoblot, band signal quantified); settings: 50% IP lanes; trans-complemented LPKO LCLs from total B cells; parent: 1.0

UniProt P25490, sequence (P25490 whole entry): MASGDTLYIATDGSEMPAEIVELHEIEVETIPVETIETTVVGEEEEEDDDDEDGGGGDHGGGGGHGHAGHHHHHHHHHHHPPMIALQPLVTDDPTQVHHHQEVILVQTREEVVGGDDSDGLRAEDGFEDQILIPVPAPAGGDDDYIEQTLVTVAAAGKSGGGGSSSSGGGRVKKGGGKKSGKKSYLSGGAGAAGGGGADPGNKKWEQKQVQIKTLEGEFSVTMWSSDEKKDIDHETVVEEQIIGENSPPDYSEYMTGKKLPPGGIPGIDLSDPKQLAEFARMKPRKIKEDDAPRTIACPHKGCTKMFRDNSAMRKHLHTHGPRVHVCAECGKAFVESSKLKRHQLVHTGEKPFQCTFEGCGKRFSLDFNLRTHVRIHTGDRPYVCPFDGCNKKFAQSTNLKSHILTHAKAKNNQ

FLAG-EBNA-LP, wild type (B95-8), four W domains W:L25A; W:L28A; W:L29A; Y:L13A; Y:L17A; Y:L18A
response [1]: 0
response [2]: 0.01
